This note sets out measurements from patent publication US20220064312A1 (SHIONOGI, published 2022).

The chains are these.
T1: human CCR4 (human, UniProt P51679 1-360)
T1 construct: also called hCCR4
T1 sequence: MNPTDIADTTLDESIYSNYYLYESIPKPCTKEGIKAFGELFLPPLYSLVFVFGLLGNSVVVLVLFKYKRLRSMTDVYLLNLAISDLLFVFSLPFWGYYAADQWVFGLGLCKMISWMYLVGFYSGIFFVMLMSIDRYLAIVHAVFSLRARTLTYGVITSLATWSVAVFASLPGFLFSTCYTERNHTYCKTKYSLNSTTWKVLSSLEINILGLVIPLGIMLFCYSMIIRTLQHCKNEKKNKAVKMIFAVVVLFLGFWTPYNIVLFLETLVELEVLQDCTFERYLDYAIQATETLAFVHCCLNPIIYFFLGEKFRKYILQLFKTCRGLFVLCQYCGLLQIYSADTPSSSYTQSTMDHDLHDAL

T2: mouse CCR8 (mouse, UniProt P56484 1-353)
T2 construct: also called mCCR8
T2 sequence: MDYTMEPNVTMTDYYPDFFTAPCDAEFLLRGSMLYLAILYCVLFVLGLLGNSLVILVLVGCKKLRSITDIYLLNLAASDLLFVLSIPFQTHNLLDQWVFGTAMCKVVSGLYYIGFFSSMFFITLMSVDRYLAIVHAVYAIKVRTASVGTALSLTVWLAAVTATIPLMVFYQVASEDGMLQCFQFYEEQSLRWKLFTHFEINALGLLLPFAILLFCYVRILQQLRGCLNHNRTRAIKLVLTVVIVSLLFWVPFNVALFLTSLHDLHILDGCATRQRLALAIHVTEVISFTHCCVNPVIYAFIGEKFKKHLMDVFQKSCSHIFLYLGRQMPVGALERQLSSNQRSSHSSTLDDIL

T3: N-ter hCCR4-hCCR8 (human)
T3 construct: chimera on Expi293 cells; remaining hCCR8 ranges derived from the stated swapped ranges and the 355-residue length; also called N-terminal region human CCR4-substituted human CCR8
T3 chain: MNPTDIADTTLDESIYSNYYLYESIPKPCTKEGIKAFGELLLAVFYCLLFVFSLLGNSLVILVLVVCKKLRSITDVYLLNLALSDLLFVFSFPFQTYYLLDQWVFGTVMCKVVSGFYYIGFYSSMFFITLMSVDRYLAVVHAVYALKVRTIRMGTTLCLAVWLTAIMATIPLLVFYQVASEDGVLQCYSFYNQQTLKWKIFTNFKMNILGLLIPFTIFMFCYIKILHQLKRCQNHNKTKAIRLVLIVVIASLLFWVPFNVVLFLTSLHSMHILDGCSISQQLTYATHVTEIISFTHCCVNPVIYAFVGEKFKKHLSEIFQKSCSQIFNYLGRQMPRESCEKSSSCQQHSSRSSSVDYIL

B1: 8F7 (antibody, V domains shown)
VH: EVQLVESGGRLVQPKRSLKLSCAASGFTFNPYAMYWIRQAPGQGLEWVARIRSKSNNYATYYADSVKDRFTISRDDSQSMLYLQMNNLKTEDTAMYYCVRGHQGTMDYWGQGTSVTVSS
VL: DIVMTQAAPSVPVTPGESVSISCRSSKSLLHSNGNTYLYWFLQRPGQSPQLLTYRMSNLASGVPDRFSGSGSGTAFTLRISRVEAEDVGVYYCMQHLEYPFTFGGGTKLEIKR
notes: mouse hybridoma antibody
B2: 10A11 (antibody, V domains shown)
VH: EVQLVESGGRLVQPKGSLKLSCAASGFAFNTYALYWIRQAPGKGLEWVARIRSKSNNYATYYADSVKDRFTISRDDSQSMLYLQMNNLKTEDTAMYYCVRARFYYSDYGYAMDYWGQGTSVTVSS
VL: B1 VL with T53I, F101L, G105A, I111L
notes: mouse hybridoma antibody; also called m10A11; clone No. 10A11
B3: 2C7 (antibody, V domains shown)
VH: QVQLKQSGPSLVQPSQSLSITCTVSGFSLTAYGVHWIRQSPGKGQEWLGVIWRGGSTDYNAAFMSRLTITKDNSKSQVFFKMNSLQADDTAIYYCAKKGGSYAMDYWGQGTSVTVSS
VL: DVVLTQTPLSLPVSLGGQASISCRSSQSLVHSNGNTYLHWYLQKPGQSPKLLIYKVSNRFSGVPDRFSGSGSGTDFTLKISRVEAEDLGVYFCSQSTQVPLTFGAGTKLELKR
notes: mouse hybridoma antibody
B4: h10A11 (IGKV4-1/IGHV3-73) (antibody, V domains shown)
VH: EVQLVESGGGLVQPGGSLKLSCAASGFAFNTYALYWVRQASGKGLEWVGRIRSKSNNYATYYADSVKDRFTISRDDSKNTAYLQMNSLKTEDTAVYYCTRARFYYSDYGYAMDYWGQGTLVTVSS
VL: DIVMTQSPDSLAVSLGERATINCRSSKSLLHSNGNTYLYWYQQKPGQPPKLLIYRMSNLASGVPDRFSGSGSGTDFTLTISSLQAEDVAVYYCMQHLEYPLTFGQGTKLEIKR
B5: h10A11 IGKV4-1 N53Q, G29R/IGHV3-15 T94R (antibody, V domains shown)
VH: B4 VH with G10A, Q13K, K19R, A28T, N30S, S41P, A81L
VL: B4 VL with G34R, N58Q
B6: h10A11 IGKV3-20 N53Q, G29R/IGHV3-15 T94R (antibody, V domains shown)
VH: B4 VH with G10A, Q13K, K19R, A28T, N30S, S41P, A81L
VL: EIVLTQSPGTLSLSPGERATLSCRSSKSLLHSNRNTYLYWYQQKPGQAPRLLIYRMSQLASGIPDRFSGSGSGTDFTLTISRLEPEDFAVYYCMQHLEYPLTFGQGTKVEIKR
B7: h10A11 IGKV3-20 N53Q, N28K/IGHV3-15 T94R (antibody, V domains shown)
VH: B4 VH with G10A, Q13K, K19R, A28T, N30S, S41P, A81L
VL: B6 VL with N33K, R34G
B8: h10A11 IGKV3-20 N53Q, G29L/IGHV3-15 T94R (antibody, V domains shown)
VH: B4 VH with G10A, Q13K, K19R, A28T, N30S, S41P, A81L
VL: B6 VL with R34L
B9: 27G1 (antibody, V domains shown)
VH: B2 VH with L34M
VL: B1 VL with T53I, F101L, G105A, I111L
notes: mouse hybridoma antibody
B10: h19D7 (IGKV2-18/IGHV3-73) (antibody, V domains shown)
VH: EVQLVESGGGLVQPGGSLKLSCAASGFTFSTYAMYWVRQASGKGLEWVGRIRSKSNNYATYYADSVKDRFTISRDDSKNTAYLQMNSLKTEDTAVYYCTRGGYGNYRYAMDYWGQGTTVTVSS
VL: DIVMTQTPPSLPVNPGEPASISCRSSKSLLHSNGNTYLYWYLQKPGQSPQLLIYRVSNLASGVPDRFSGSGSGSDFTLKISWVEAEDVGVYYCMQHLEYPFTFGQGTKLEIK

Substitutions are numbered along the chain they refer to. Names and notes keep the numbering of the source.

The target of the first test is T4, human CCR8 (human, UniProt P51685 1-355). The experiment in a line: cell-based or functional assay.
T4 sequence (P51685 whole entry): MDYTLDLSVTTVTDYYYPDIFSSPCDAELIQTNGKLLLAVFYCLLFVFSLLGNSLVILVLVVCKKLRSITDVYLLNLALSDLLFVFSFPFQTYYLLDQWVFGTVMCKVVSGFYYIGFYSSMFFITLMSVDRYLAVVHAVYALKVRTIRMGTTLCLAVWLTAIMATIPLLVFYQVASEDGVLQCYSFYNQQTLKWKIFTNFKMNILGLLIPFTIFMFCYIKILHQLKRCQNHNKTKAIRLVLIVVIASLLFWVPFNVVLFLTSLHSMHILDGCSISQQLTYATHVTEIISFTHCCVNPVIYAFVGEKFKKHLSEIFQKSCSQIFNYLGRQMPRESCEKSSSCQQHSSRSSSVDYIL
B1: the “IC50 (nM), Ca2+ influx by 200 nM hCCL1” value was found to be 3.03 nM.

With B2, the “IC50 (nM), Ca2+ influx by 200 nM hCCL1” value turned out to be 0.23 nM.

As to B3, the “IC50 (nM), Ca2+ influx by 200 nM hCCL1” value was found to be 1.19 nM.

In a further test the target is T4, human CCR8. The experiment in a line: cell-based or functional assay. This is another data set of the same source.
As to B2, the “IC50 (nM), Ca2+ influx by 200 nM hCCL1” value came to 0.23 nM.

Consider B4, for which the “IC50 (nM), Ca2+ influx by 200 nM hCCL1” value is 0.17 nM.

In another test the target is T4, human CCR8. As to the kind of experiment: cell-based or functional assay. The source holds these as a separate data set.
Turning to B5, the “IC50 (nM), Ca2+ influx by 200 nM hCCL1” value was found to be 0.12 nM.

For the molecule B6, the “IC50 (nM), Ca2+ influx by 200 nM hCCL1” value came out at 0.19 nM.

B7: the “IC50 (nM), Ca2+ influx by 200 nM hCCL1” value came out at 0.29 nM.

Regarding B8, the “IC50 (nM), Ca2+ influx by 200 nM hCCL1” value came out at 0.21 nM.

For the next test, the target named is T5, loop2 hCCR4-hCCR8 (human, UniProt P51685 1-355).
T5 construct: chimera on Expi293 cells; hCCR8 ranges derived; also called loop2-human CCR4-substituted human CCR8
The experiment in a line: flow cytometry, transfected Expi293 cells; Δ = significantly reduced vs hCCR8.
B9: the binding result is on record as “binds”.

Consider B1, for which the binding result was “binds”.

For B2, the binding result is given as “binds”.

For B3, the binding result was “binds”.

The target in another test is T6, loop1 hCCR4-hCCR8 (human, UniProt P51685 1-355).
T6 construct: chimera on Expi293 cells; hCCR8 ranges derived; also called loop 1-human CCR4-substituted human CCR8
Described as above.
As to B9, the binding result is given as “binds”.

Consider B2, for which the binding result was “binds”.

For a further test, the target named is T1, human CCR4. The experiment in a line: flow cytometry, transfected Expi293 cells.
With B9, the binding result is listed as “no binding”.

On to B1, for which the binding result is “no binding”.

On to B2, for which the binding result is given as “no binding”.

B3: the binding result was “no binding”.

The target of another test is T2, mouse CCR8. As to the kind of experiment: flow cytometry, transfected Expi293 cells. (In general: Flow cytometry measures light scatter and fluorescence of single cells or particles in a stream.)
With B9, the binding result is listed as “no binding”.

Take B1: the binding result is on record as “no binding”.

Regarding B2, the binding result was “no binding”.

On to B3, for which the binding result was “no binding”.

Another test deals with T3, N-ter hCCR4-hCCR8. As to the kind of experiment: flow cytometry, transfected Expi293 cells.
Turning to B9, the binding result is recorded as “no binding”.

Consider B1, for which the binding result is given as “no binding”.

On to B2, for which the binding result is reported as “no binding”.

Take B3: the binding result was “no binding”.

The target in another test is T6, loop1 hCCR4-hCCR8. As to the kind of experiment: flow cytometry, transfected Expi293 cells.
With B1, the binding result was “no binding”.

Consider B3, for which the binding result is recorded as “no binding”.

In the next test the target is hCCR8 (Y17A) (human, UniProt P51685 1-355). As to the kind of experiment: flow cytometry, transfected Expi293 cells.
hCCR8 (Y17A), sequence (P51685 whole entry Y17A): as the sequence (P51685 whole entry) above, with Y17A counted along it
Regarding B9, the binding result was “no binding”.

For B1, the binding result is “no binding”.

With B2, the binding result is “no binding”.

B3: the binding result is reported as “no binding”.

Another test addresses T4, human CCR8. As to the kind of experiment: cell-based or functional assay. This is another data set of the same source.
Consider B9, for which the “Neutralizing Activity IC50 (nM), Ca2+ influx by 100 nM hCCL1” value (“Neutralizing Activity IC50 (nM)” below) came out at 0.09 nM.

Consider B1, for which the “Neutralizing Activity IC50 (nM)” value is 1.56 nM.

Regarding B2, the “Neutralizing Activity IC50 (nM)” value amounted to 0.08 nM.

On to B3, for which the “Neutralizing Activity IC50 (nM)” value came out at 0.4 nM.

The target in a further test is T4, human CCR8. As to the kind of experiment: cell-based or functional assay. This is another data set of the same source.
In the case of B10, the “IC50 (nM), Ca2+ influx by 200 nM hCCL1” value amounted to 0.46 nM.

The target of the next test is T4, human CCR8. The experiment in a line: cell-based or functional assay. This is another data set of the same source.
As to B4, the “IC50 ratio (WT IC50/mutant IC50)” value stood at 1 ratio.
